Assays:
Assay in all cases: flow cytometry on transiently transfected cells
[1] = biological target: T1, CD30, on transiently transfected cells (UniProt P28908 19-595, limits assumed)
T1 construct: whole, on cells
T1 sequence (looked up): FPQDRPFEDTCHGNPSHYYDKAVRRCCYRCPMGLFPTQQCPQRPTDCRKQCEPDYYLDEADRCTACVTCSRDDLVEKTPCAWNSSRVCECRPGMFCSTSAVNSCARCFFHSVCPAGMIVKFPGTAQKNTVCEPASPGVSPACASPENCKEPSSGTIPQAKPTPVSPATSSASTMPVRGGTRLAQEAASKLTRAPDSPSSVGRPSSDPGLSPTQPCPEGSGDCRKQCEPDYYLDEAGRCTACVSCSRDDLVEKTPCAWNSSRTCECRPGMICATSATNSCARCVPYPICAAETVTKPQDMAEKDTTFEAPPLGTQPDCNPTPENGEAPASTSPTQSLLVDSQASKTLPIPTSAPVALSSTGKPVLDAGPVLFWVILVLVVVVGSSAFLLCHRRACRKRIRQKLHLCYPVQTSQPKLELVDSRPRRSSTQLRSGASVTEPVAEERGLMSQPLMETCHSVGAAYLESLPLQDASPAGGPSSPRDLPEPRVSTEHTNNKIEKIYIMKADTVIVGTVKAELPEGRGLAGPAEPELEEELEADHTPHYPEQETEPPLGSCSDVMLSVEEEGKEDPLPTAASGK
Method: (§1) One million cells, in 0.1 ml of FACS buffer (PBS, 0.1% BSA, 0.1% NaN₃), were incubated with 0.1-1 microgram of protein or antibody at RT for 15 min. The cells were washed with 3 ml of FACS buffer, reacted with biotinylated primary antibody, and stained with PE-conjugated secondary antibody at RT for 15 min. Cells were then washed again, resuspended in 0.5 microgram/ml of propidium iodide, and live cells were gated and analyzed on a FACScan using the CellQuest software (BD Biosciences).

[2] = biological target: T2, HveA, on transiently transfected cells (UniProt Q92956 39-283, limits assumed)
T2 construct: whole, on cells
T2 sequence (looked up): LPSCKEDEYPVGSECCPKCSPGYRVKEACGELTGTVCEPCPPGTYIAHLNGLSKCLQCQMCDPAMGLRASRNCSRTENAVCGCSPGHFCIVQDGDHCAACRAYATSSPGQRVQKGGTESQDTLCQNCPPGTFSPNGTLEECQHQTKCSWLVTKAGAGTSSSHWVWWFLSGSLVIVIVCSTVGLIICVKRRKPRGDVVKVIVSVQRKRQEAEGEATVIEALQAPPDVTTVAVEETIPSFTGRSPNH
Method: as §1

[3] = biological target: T3, 4-1BB, on transiently transfected cells (UniProt Q07011 24-255)
T3 construct: whole, on cells
Method: as §1

[4] = biological target: T4, DcR1, on transiently transfected cells (UniProt O14798 26-236, limits assumed)
T4 construct: whole, on cells
T4 sequence (looked up): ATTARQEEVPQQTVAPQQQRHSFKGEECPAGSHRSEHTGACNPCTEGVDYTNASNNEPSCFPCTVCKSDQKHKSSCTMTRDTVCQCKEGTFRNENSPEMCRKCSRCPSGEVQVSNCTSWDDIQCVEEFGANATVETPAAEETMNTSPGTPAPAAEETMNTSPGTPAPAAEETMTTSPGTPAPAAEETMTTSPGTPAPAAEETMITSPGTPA
Method: as §1

[5] = biological target: T5, BCMA, on transiently transfected cells (UniProt Q02223 1-184, limits assumed)
T5 construct: whole, on cells
T5 sequence (looked up): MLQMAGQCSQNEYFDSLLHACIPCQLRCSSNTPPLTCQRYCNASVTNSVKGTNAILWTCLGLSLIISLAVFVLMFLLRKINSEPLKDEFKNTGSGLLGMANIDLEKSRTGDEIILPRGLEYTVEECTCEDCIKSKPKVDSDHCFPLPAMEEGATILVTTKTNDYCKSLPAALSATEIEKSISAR
Method: as §1

[6] = biological target: T6, RANK, on transiently transfected cells (UniProt Q9Y6Q6 30-616, limits assumed)
T6 construct: whole, on cells
T6 sequence (looked up): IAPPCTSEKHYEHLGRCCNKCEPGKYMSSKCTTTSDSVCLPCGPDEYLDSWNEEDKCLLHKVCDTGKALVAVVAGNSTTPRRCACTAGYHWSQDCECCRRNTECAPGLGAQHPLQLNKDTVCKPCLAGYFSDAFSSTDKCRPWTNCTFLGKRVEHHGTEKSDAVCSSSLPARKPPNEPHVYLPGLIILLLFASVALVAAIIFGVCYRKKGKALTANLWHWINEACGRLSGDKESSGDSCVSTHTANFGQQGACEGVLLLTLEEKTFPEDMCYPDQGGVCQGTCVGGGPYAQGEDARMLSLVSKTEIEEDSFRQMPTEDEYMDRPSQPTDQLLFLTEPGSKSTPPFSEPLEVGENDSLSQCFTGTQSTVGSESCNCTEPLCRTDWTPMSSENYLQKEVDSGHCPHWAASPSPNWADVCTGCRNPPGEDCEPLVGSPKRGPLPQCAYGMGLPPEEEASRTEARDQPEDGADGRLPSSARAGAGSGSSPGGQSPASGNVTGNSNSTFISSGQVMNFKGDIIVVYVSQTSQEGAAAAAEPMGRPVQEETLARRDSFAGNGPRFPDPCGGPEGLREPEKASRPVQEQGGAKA
Method: as §1

Measured: binding result

T3 sequence (Q07011 24-255): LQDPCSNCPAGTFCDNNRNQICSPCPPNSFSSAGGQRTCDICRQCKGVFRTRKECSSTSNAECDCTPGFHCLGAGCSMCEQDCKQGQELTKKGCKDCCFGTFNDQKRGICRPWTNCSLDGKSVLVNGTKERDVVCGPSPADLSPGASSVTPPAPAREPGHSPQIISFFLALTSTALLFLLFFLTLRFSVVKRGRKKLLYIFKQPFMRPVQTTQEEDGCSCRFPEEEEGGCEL

B1: FLAG-tagged soluble form of TNF-gamma-beta (aa 72-251) (ligand, human, UniProt O95150 72-251, looked up, not shown: small tags and cut ends)
chain: LKGQEFAPSHQQVYAPLRADGDKPRAHLTVVRQTPTQHFKNQFPALHWEHELGLAFTKNRMNYTNKFLLIPESGDYFIYSQVTFRGMTSECSEIRQAGRPNKPDSITVVITKVTDSYPEPTQLLMGTKSVCEVGSNWFQPIYLGAMFSLQEGDKLMVNVSDISLVDYTKEDKTFFGAFLL
notes: also called FLAG-TL1β; FLAG-TNF-gamma-beta
no binding: [1] | [2] | [3] | [4] | [5] | [6]
